46 sequences from the supplement of paper PMC9233669 can be followed below.

Variants at the floor of the assay were thinned out.

Data set [1] relates to biotinyl-Trp-oxazolone. The data set is described as follows: self-aminoacylation, catalytic enhancement (BWO) (fold over background); higher = more active; k-Seq, kA / k0A0; sequences stand for … in GGGAAUGGAUCCACAUCUACGAAUUC…UUCACUGCAGACUUGACGAAGCUG
Summed up: (§1)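 Working in 50 μL HEPES/NaCl/KCl/MgCl2/CaCl2 buffer with 5% acetonitrile at pH 6.9–7.0, mutagenized RNA pools (0.43 μM; 21-nt variable region) were reacted with 2–1250 μM of each biotinyl-aminoacyl-oxazolone for 90 minutes at room temperature. Streptavidin capture followed, with quantification by triplicate qPCR and Illumina sequencing. Catalytic enhancement is reported as median kA over the uncatalyzed rate, the low-activity peak of a bimodal Gaussian fit to the data.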

Data set [2] relates to biotinyl-Leu-oxazolone. As to the kind of experiment: self-aminoacylation, catalytic enhancement (BLO) (fold over background); higher = more active; k-Seq, kA / k0A0; sequences stand for … in GGGAAUGGAUCCACAUCUACGAAUUC…UUCACUGCAGACUUGACGAAGCUG
A digest of the protocol: as §1

The subject of data set [3] is biotinyl-Phe-oxazolone. As to the kind of experiment: self-aminoacylation, catalytic enhancement (BFO) (fold over background); higher = more active; k-Seq, kA / k0A0; sequences stand for … in GGGAAUGGAUCCACAUCUACGAAUUC…UUCACUGCAGACUUGACGAAGCUG
Summed up: as §1

Data set [4] concerns biotinyl-Met-oxazolone. As to the kind of experiment: self-aminoacylation, catalytic enhancement (BMO) (fold over background); higher = more active; k-Seq, kA / k0A0; sequences stand for … in GGGAAUGGAUCCACAUCUACGAAUUC…UUCACUGCAGACUUGACGAAGCUG
A digest of the protocol:
as §1

Data set [5] relates to biotinyl-Val-oxazolone. The data set is described as follows: self-aminoacylation, catalytic enhancement (BVO) (fold over background); higher = more active; k-Seq, kA / k0A0; sequences stand for … in GGGAAUGGAUCCACAUCUACGAAUUC…UUCACUGCAGACUUGACGAAGCUG
A digest of the protocol: as §1

As for “CCAUGCUUCAAGCAAUCGGUC [Fam1B.1 aminoacylation ribozyme variant]”, the self-aminoacylation in data set [1] was 39; in data set [2], 2.66; in data set [3], 76.2.
Regarding “AUUCACCCAGGUCAUAGGGUG [Fam2.2 aminoacylation ribozyme variant]”, the values for the self-aminoacylation in data set [1], in data set [2] and in data set [3] were 2.08, 2.46 and 7.85, respectively.
As to “AUUAACCUAGGACAUCGGGUG [Fam2.2 aminoacylation ribozyme variant]”, the self-aminoacylation in data set [1] amounted to 2.82; in data set [2], 3.2; in data set [3], 14.2.
With “CCCCACUUCAAGCAAUCGGUA [Fam1B.1 aminoacylation ribozyme variant]”, the values for the self-aminoacylation in data set [1], in data set [2] and in data set [3] were 3.44, 2.71 and 11.8, respectively.
Take “CUACUUCAAUCAAUCGGCCUG [Fam1A.1 aminoacylation ribozyme variant]”: the self-aminoacylation in data set [1] was found to be 30.3; in data set [2] it was 2.56; in data set [3], 34.9.
With “AUUACCCUUGUCAUCGUGUGA [Fam2.1 aminoacylation ribozyme variant]”, the self-aminoacylation in data set [4] is 2.59; in data set [1] it was 2.88; in data set [2], 2.69; in data set [3] it was 5.78.
On the same counts, the results for “AUUAUCCUCGUCAUCGAGUGA [Fam2.1 aminoacylation ribozyme variant]” are 2.95, 3, 2.75 and 5.23.
For the sequence “AUUCACCUACGUCAUCUGGUG [Fam2.2 aminoacylation ribozyme variant]”, the self-aminoacylation came to 2.09 in data set [4], 2.24 in data set [2] and 6.74 in data set [3].
Take “AUUCACCUCGGUCAUCGGGUC [Fam2.2 aminoacylation ribozyme variant]”: the self-aminoacylation turned out to be 2.04 in data set [2], 9.78 in data set [3] and 2.01 in data set [5].
On to “AUUACCCUGGUCCUCGAGGGA [Fam2.1 aminoacylation ribozyme variant]”, for which the self-aminoacylation worked out at 2.37 in data set [1] and 2.15 in data set [5].
With “CCCCACUGCAAGCAAUCGGUC [Fam1B.1 aminoacylation ribozyme variant]”, the self-aminoacylation in data set [1] is 3.43; in data set [3] it was 4.31; in data set [5] it was 2.35.
For the sequence “CCACACUUCAAGCAUUCGGUA [Fam1B.1 aminoacylation ribozyme variant]”, the self-aminoacylation in data set [5] stood at 2.44.
Regarding “CUACCUCAAACAAUCGGGCUG [Fam1A.1 aminoacylation ribozyme variant]”, the self-aminoacylation is 2.02 in data set [4], 2.4 in data set [2] and 2.01 in data set [3].
In the case of “AUUGCCCUGGUCAUCGUGUGA [Fam2.1 aminoacylation ribozyme variant]”, the self-aminoacylation in data set [4] worked out at 2.93; in data set [1], 3.2; in data set [2] it was 3.19; in data set [3] it was 24.
“GAGUUUGCUAAAAGUCGCAAG [Fam3.1 aminoacylation ribozyme variant]”: the self-aminoacylation in data set [1] turned out to be 5.66; in data set [3] it was 8.71; in data set [5] it was 2.1.
Consider “AUUCACCUAGUUCAUAGGGUG [Fam2.2 aminoacylation ribozyme variant]”, for which the self-aminoacylation in data set [4] stood at 3.63; in data set [1], 3.14; in data set [2], 3.8; in data set [3], 15.4.
With “AAGUUUGCGAAUAGUCGCAAU [Fam3.1 aminoacylation ribozyme variant]”, the self-aminoacylation in data set [4] came to 2.13; in data set [3] it was 6.18.
For the sequence “AUUGACCUAGCUCAUCGGGUG [Fam2.2 aminoacylation ribozyme variant]”, the self-aminoacylation in data set [4] turned out to be 2.14; in data set [1], 2.71; in data set [3] it was 11.
In the case of “AUUACCCUGGACAUCAAGUGA [Fam2.1 aminoacylation ribozyme variant]”, the self-aminoacylation in data set [4] amounted to 2.33; in data set [1] it was 2.98; in data set [2], 2.29; in data set [3] it was 5.55.
“ACGUUUGCUAAAAGUCGCAAG [Fam3.1 aminoacylation ribozyme variant]”: the values for the self-aminoacylation in data set [4], in data set [1] and in data set [3] were 2.09, 3.43 and 3.93, respectively.
In the case of “AUUCACGUAGGUCAUCGGGAG [Fam2.2 aminoacylation ribozyme variant]”, the self-aminoacylation in data set [4] was 2.07; in data set [5] it was 2.13.
Take “AAAUUUGCUAAUUGUCGCAAG [Fam3.1 aminoacylation ribozyme variant]”: the self-aminoacylation in data set [4] was 2.03.
Consider “AUUCGCCUAGGUCAUAGGGUG [Fam2.2 aminoacylation ribozyme variant]”, for which the results for the self-aminoacylation in data set [4], in data set [2] and in data set [3] were 2.16, 2.47 and 7.92, respectively.
Turning to “AUUUCCCUGGUCAUCGAGCGA [Fam2.1 aminoacylation ribozyme variant]”, the values for the self-aminoacylation in data set [4], in data set [1] and in data set [2] were 2.25, 2.59 and 2.18, respectively.
Consider “CCCCUCUUCAAGCAAUCGGUC [Fam1B.1 aminoacylation ribozyme variant]”, for which the values for the self-aminoacylation in data set [1], in data set [2] and in data set [3] were 31.2, 2.09 and 49.1, respectively.
Regarding “CCACACUUCAAGCAAUCGCUU [Fam1B.1 aminoacylation ribozyme variant]”, the self-aminoacylation in data set [4] is 2.06; in data set [2] it was 2.09.
As to “AUUACCUUCGUCAUCGAGUGA [Fam2.1 aminoacylation ribozyme variant]”, the self-aminoacylation in data set [4] was found to be 2.22; in data set [1], 2.15; in data set [2], 2.18; in data set [3], 2.48.
In the same order, the values of “AUUCACGUAGGUCAUCGAGUG [Fam2.2 aminoacylation ribozyme variant]” are 2.92, 2.73, 2.67 and 2.42.
On to “CCCCACGUCAAGCAAUCGGUC [Fam1B.1 aminoacylation ribozyme variant]”, for which the self-aminoacylation came to 2.49 in data set [1], 5.6 in data set [3] and 2.4 in data set [5].
Turning to “AAGUUCGCGAAUAGUCGCAAG [Fam3.1 aminoacylation ribozyme variant]”, the self-aminoacylation was 2.31 in data set [4], 3.3 in data set [1] and 5.66 in data set [3].
As for “CCUCGCUUCAAGCAAUCGGUC [Fam1B.1 aminoacylation ribozyme variant]”, the figures for the self-aminoacylation in data set [1], in data set [2] and in data set [3] were 36, 2.24 and 81.2, respectively.
As for “AUUACCAUGCUCAUCGAGUGA [Fam2.1 aminoacylation ribozyme variant]”, the self-aminoacylation in data set [4] was 2.63; in data set [1], 2.15; in data set [2], 2.12; in data set [3] it was 2.98.
For the sequence “GAGCUUGCUAAUAGUCGCAAG [Fam3.1 aminoacylation ribozyme variant]”, the self-aminoacylation in data set [4] stood at 2.03; in data set [1], 2.4; in data set [3], 4.81; in data set [5], 2.02.
Regarding “AUACUUCAAACAAUCGGCCUG [Fam1A.1 aminoacylation ribozyme variant]”, the self-aminoacylation in data set [1] was 15.5; in data set [2] it was 2.02; in data set [3] it was 20.7.
In the case of “AUACACCUAGGUCAUCGGCUG [Fam2.2 aminoacylation ribozyme variant]”, the self-aminoacylation stood at 2.13 in data set [4], 2.03 in data set [2] and 4 in data set [3].
As to “AUUACCCUGGUCAACGAGUGU [Fam2.1 aminoacylation ribozyme variant]”, the self-aminoacylation in data set [4] stood at 2.91; in data set [1], 3.43; in data set [2], 3; in data set [3], 6.18.
Consider “AGGUUUGCUAAAAGUCGCAAG [Fam3.1 aminoacylation ribozyme variant]”, for which the self-aminoacylation in data set [4] was 2.13; in data set [1], 4.38; in data set [3], 10.5.
As to “CCACACCUCAAGCAAUCGGUA [Fam1B.1 aminoacylation ribozyme variant]”, the self-aminoacylation in data set [5] is 2.1.
In the case of “GUUCACCUAGGUCAUAGGGUG [Fam2.2 aminoacylation ribozyme variant]”, the self-aminoacylation in data set [1] stood at 2.22; in data set [2], 2.08; in data set [3] it was 2.11.
Take “AAAGUUGCUAAUAGUCGCAAG [Fam3.1 aminoacylation ribozyme variant]”: the results for the self-aminoacylation in data set [4] and in data set [3] were 2.06 and 3.77, respectively.
For the sequence “CCACGCUUCAAACAAUCGGUC [Fam1B.1 aminoacylation ribozyme variant]”, the self-aminoacylation in data set [1] was 45.3; in data set [2], 2.17; in data set [3] it was 92.8.
For the sequence “AUUCACCUAGGUCAUCGCGAG [Fam2.2 aminoacylation ribozyme variant]”, the self-aminoacylation in data set [3] is 4.46; in data set [5], 2.31.
“CGCCACUUCAAGCAAUCGGUC [Fam1B.1 aminoacylation ribozyme variant]”: the self-aminoacylation is 24.2 in data set [1], 2.26 in data set [2] and 37.1 in data set [3].
Turning to “AAGCUUGCUAAUAGUCGCAAA [Fam3.1 aminoacylation ribozyme variant]”, the self-aminoacylation was found to be 2.21 in data set [4], 2.2 in data set [1] and 2.75 in data set [3].
Turning to “CCAUACUUCAAGCAAUCGGCC [Fam1B.1 aminoacylation ribozyme variant]”, the self-aminoacylation in data set [4] was determined as 2.36; in data set [1], 3.74; in data set [2], 2.33; in data set [3] it was 2.88.
As for “CCACACUUCAGGCGAUCGGUC [Fam1B.1 aminoacylation ribozyme variant]”, the self-aminoacylation was 2.1 in data set [4], 4.75 in data set [3] and 2.42 in data set [5].
